The values below come from patent US20230295310A1.

The target in the test is human CD3 expressed on cells (human) (UniProt P07766). The test can be described thus: flow cytometry, 25 nM.
human CD3 expressed on cells (human), sequence (P07766 23-207, chain 1 of 3): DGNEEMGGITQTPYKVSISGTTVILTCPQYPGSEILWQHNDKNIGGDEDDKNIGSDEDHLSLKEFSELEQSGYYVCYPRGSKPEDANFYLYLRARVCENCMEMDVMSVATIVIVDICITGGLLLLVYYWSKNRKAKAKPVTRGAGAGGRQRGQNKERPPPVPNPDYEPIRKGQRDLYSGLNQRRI
human CD3 expressed on cells (human), sequence (P04234 22-171, chain 2 of 3, further chain): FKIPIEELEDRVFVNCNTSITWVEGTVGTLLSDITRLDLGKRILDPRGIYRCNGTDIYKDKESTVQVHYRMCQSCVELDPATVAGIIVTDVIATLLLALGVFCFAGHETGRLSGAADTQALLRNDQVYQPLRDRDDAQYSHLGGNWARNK
human CD3 expressed on cells (human), sequence (P09693 23-182, chain 3 of 3, further chain): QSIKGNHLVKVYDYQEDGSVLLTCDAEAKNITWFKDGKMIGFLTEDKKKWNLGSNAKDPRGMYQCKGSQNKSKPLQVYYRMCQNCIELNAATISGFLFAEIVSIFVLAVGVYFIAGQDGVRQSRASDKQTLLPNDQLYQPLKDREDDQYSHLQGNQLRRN

B1: mAb 109 (antibody, V domains shown)
VH: QVQLVESGGGVVQPGRSLRLSCVASGFPFRSYGMHWVRQAPGKGLEWVAFIWYDGSNKYYADSVRGRFTISRDNFKKMVYLQMNSLRAEDTAVYYCARDLAGIYAFDVWGQGTVVTVSS
VL: EIVMTQSPATLSVSPGERATLSCRASQSVSSNLAWYQQKPGQAPRLLIYGASTRATGIPARFSGSGSGTEFTLTVSSLQSEDFAIYYCQQYNNWRPLTFGGGTKVEIK
B1 gave a Human primary T Cell Binding (FOI) of 1.4 FOI.
